A word on the Kd: it is the constant that tells how readily two partners part at equilibrium. Read a high Kd as lower affinity.

We go through two molecules from US6423500 (SCHERING, dated 2002).

For experiment [1], the target named is T1, mouse IL-10 receptor (mouse, UniProt Q61727 17-575).
T1 construct: Expressed on transfected COS7 cells; the native receptor on mouse cell lines (MC/9, J774, WEHI 265.1) is written as this same molecule; also called mIL-10R; mouse IL-10 receptor component
T1 sequence: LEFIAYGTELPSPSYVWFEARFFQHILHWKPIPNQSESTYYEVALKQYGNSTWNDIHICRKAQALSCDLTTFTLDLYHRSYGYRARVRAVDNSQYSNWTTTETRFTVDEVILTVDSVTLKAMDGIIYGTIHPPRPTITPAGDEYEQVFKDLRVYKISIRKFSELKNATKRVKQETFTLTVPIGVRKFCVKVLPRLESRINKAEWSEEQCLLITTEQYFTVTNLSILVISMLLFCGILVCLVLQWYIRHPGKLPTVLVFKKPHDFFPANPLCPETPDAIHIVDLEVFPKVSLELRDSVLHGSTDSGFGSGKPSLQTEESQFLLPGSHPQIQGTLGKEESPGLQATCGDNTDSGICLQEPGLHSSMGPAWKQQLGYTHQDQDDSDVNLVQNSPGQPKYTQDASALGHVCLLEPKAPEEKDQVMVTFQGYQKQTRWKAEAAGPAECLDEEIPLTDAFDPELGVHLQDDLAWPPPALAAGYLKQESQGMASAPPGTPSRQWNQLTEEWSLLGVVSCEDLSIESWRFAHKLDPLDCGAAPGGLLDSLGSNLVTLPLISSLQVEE
Nature of the experiment: FACS competition against FLAG-mIL-10 on MC/9 and J774 cells.

The target of experiment [2] is T2, human IL-10 receptor (human, UniProt Q13651 22-578).
T2 construct: Expressed on transfected COS7 cells and Ba/F3 (Ba8.1) cells; The native IL-10 receptor on human cell lines (JY, TF-1, BJAB, Ramos, BH5) is written as this same molecule; also called hIL-10R; human IL-10 receptor component
T2 sequence: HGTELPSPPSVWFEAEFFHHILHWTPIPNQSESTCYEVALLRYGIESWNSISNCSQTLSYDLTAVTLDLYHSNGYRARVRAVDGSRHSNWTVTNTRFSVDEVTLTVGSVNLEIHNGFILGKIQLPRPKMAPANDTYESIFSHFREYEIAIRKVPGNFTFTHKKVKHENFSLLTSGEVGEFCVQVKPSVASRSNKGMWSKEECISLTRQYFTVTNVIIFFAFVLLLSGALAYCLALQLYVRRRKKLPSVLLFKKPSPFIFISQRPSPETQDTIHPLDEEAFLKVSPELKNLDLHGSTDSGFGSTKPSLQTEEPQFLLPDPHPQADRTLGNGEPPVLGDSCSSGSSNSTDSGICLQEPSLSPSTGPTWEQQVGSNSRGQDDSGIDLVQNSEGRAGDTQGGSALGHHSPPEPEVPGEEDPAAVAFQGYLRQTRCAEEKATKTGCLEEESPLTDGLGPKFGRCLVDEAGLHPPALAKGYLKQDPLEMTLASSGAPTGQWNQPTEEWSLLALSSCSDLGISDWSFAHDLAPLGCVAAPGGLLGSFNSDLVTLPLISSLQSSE
Nature of the experiment: saturation binding of iodinated hIL-10 to JY cells, Scatchard analysis.
Description: (§1) Scatchard analysis was performed on the data points obtained using the EBDA Program (Elsevier-Biosoft, Cambridge, U.K.). Antibody inhibition was performed under the above binding conditions but with the addition of a 100-fold molar excess of each of the indicated monoclonal antibodies. Cytokine specificity was determined under similar conditions but with the addition of 500-fold molar excess of the cytokines indicated.

In experiment [3] the target is T2, human IL-10 receptor. Nature of the experiment: Scatchard analysis of 125I-hIL-10 binding to Ba8.1 cells, repeat experiments.
Excerpt: (§2) Values for Kd and receptor number were obtained by Scatchard analysis (23, 33, 34).
Experiment [4] addresses T2, human IL-10 receptor. Nature of the experiment: saturation binding of iodinated hIL-10 to JY cells, Scatchard analysis (EBDA).
Description: as §1
Experiment [5] deals with T1, mouse IL-10 receptor. Nature of the experiment: saturation binding of iodinated hIL-10 to MC/9 cells, Scatchard analysis (EBDA).
Description: as §1
The target of experiment [6] is IL-10 receptors on JY and MC/9 cells. Nature of the experiment: saturation binding of iodinated hIL-10 to JY and MC/9 cells, several independent experiments.
In experiment [7] the target is T2, human IL-10 receptor. Nature of the experiment: Scatchard analysis of 125I-hIL-10 binding to Ba8.1 cells (Ba/F3 expressing hIL-10R), experiment shown.
Excerpt: as §2
For experiment [8], the target named is T2, human IL-10 receptor. Nature of the experiment: saturation binding of iodinated hIL-10 to COS7 cells transfected with human clone SW8.1, Scatchard plot.
Description: (§3) Binding assays were performed. […] For FIGS. 16 and 17, the highest concentration was 1 nM. Background was determined by performing binding at 500-fold molar excess. Points represent averages of duplicates.
The target in experiment [9] is T1, mouse IL-10 receptor. Nature of the experiment: saturation binding of iodinated hIL-10 to COS7 cells transfected with mouse clone m3.14, Scatchard plot.
Description: as §3

B1: mouse IL-10 (ligand, UniProt P18893 19-178, looked up)
chain: SRGQYSREDNNCTHFPVGQSHMLLELRTAFSQVKTFFQTKDQLDNILLTDSLMQDFKGYLGCQALSEMIQFYLVEVMPQAEKHGPEIKEHLNSLGEKLKTLRMRLRRCHRFLPCENKSKAVEQVKSDFNKLQDQGVYKAMNEFDIFINCIEAYMMIKMKS
notes: mature; also called mIL-10; murine IL-10
B1: the binding result with mouse IL-10 receptor [1] was “binds”.

B2: human IL-10 (ligand, UniProt P22301 19-178, looked up)
chain: SPGQGTQSENSCTHFPGNLPNMLRDLRDAFSRVKTFFQMKDQLDNLLLKESLLEDFKGYLGCQALSEMIQFYLEEVMPQAENQDPDIKAHVNSLGENLKTLRLRLRRCHRFLPCENKSKAVEQVKNAFNKLQEKGIYKAMSEFDIFINYIEAYMTMKIRN
modifications: radioiodinated (125I, lactoperoxidase method) where used as labeled ligand; positions not given
notes: mature; Labeled and unlabeled hIL-10 are treated as one molecule; also called hIL-10; human interleukin-10
With B2, the Kd is approximately 0.15 nM with human IL-10 receptor [2]; 0.2 to 0.25 nM with human IL-10 receptor [3]; 0.14 nM in the experiment with human IL-10 receptor [4]; 0.049 nM with mouse IL-10 receptor [5]; 0.05 to 0.17 nM in [6]; approximately 0.25 nM in the experiment with human IL-10 receptor [7]. Moreover, the equilibrium dissociation constant (Kd) came to 0.12 nM with human IL-10 receptor [8] and 0.083 nM with mouse IL-10 receptor [9].
